The results in this text go back to the Immune Epitope Database (IEDB).

For experiment [1], the target named is HLA-B*57:01. As to the kind of experiment: IEDB peptide-MHC binding, purified MHC/competitive/fluorescence; filed as Kd, often an IC50 or EC50 that approximates it; ≥ and ≤ were set here for values at or beyond the usual limits of such assays.
Experiment [2] has as its target HLA-B*46:01. The experiment is described as above.
Experiment [3] addresses HLA-A*02:12. Described as above.
For experiment [4], the target named is HLA-A*03:01. The experiment is described as above.
Experiment [5] concerns the target HLA-A*02:16. The experiment is described as above.
For experiment [6], the target named is HLA-A*02:01. Described as above.
For experiment [7], the target named is HLA-B*18:01. The experiment is described as above.
Experiment [8] deals with HLA-A*29:02. Described as above.
Experiment [9] addresses HLA-A*26:01. Described as above.
In experiment [10] the target is HLA-A*02:11. The description is as above.
The target of experiment [11] is HLA-A*02:03. The description is as above.
Experiment [12] concerns the target HLA-B*27:03. The experiment is described as above.
The target of experiment [13] is HLA-A*69:01. The experiment is described as above.
The target in experiment [14] is HLA-B*39:01. The experiment is described as above.
Experiment [15] has as its target HLA-B*51:01. The description is as above.
In experiment [16] the target is HLA-B*15:17. The description is as above. The conditions noted are these: source organism: Entamoeba histolytica HM-1:IMSS.
Experiment [17] deals with HLA-B*15:01. The experiment is described as above.
Experiment [18] addresses HLA-A*68:02. Described as above.
The target in experiment [19] is HLA-A*24:03. The description is as above.
Experiment [20] deals with HLA-A*02:19. Described as above.
Experiment [21] deals with HLA-A*23:01. The experiment is described as above.
Experiment [22] deals with HLA-A*02:01. As to the kind of experiment: IEDB peptide-MHC binding, purified MHC/direct/fluorescence; filed as Kd, often an IC50 or EC50 that approximates it; ≥ and ≤ were set here for values at or beyond the usual limits of such assays. The following applies: source organism: Human herpesvirus 4 strain B95-8.
Experiment [23] addresses HLA-A*32:15. As to the kind of experiment: IEDB peptide-MHC binding, purified MHC/competitive/fluorescence; filed as Kd, often an IC50 or EC50 that approximates it; ≥ and ≤ were set here for values at or beyond the usual limits of such assays. The following applies: source organism: human gammaherpesvirus 4.
The target of experiment [24] is HLA-A*68:23. The description is as above.
For experiment [25], the target named is HLA-B*83:01. The experiment is described as above.
The target in experiment [26] is HLA-B*45:06. Described as above.
In experiment [27] the target is HLA-B*15:42. The description is as above.
For experiment [28], the target named is HLA-C*08:02. As to the kind of experiment: IEDB peptide-MHC binding, purified MHC/direct/fluorescence; filed as Kd, often an IC50 or EC50 that approximates it; ≥ and ≤ were set here for values at or beyond the usual limits of such assays. The following applies: source organism: Giardia lamblia ATCC 50803.
Experiment [29] has as its target HLA-A*01:01. The description is as above. The following applies: source organism: Giardia lamblia ATCC 50803.
The target in experiment [30] is HLA-C*04:01. As to the kind of experiment: IEDB peptide-MHC binding, purified MHC/competitive/fluorescence; filed as Kd, often an IC50 or EC50 that approximates it; ≥ and ≤ were set here for values at or beyond the usual limits of such assays. The conditions noted are these: source organism: Giardia lamblia ATCC 50803.
The target in experiment [31] is HLA-C*06:02. As to the kind of experiment: IEDB peptide-MHC binding, purified MHC/direct/fluorescence; filed as Kd, often an IC50 or EC50 that approximates it; ≥ and ≤ were set here for values at or beyond the usual limits of such assays. The following applies: source organism: Vibrio antiquarius.
Experiment [32] addresses HLA-C*05:01. The description is as above. The conditions noted are these: source organism: Vibrio antiquarius.
Experiment [33] deals with HLA-B*58:01. As to the kind of experiment: IEDB peptide-MHC binding, purified MHC/competitive/fluorescence; filed as Kd, often an IC50 or EC50 that approximates it; ≥ and ≤ were set here for values at or beyond the usual limits of such assays.
[34] abbreviates: source organism: Entamoeba histolytica HM-1:IMSS.
Where [35] appears, read: source organism: human gammaherpesvirus 4.
Where [36] appears, read: source organism: Vibrio cholerae 2740-80.
Setting [37] is: source organism: Giardia lamblia ATCC 50803.
The mark [38] stands for this setting: source organism: Mycobacterium tuberculosis variant bovis BCG str. Pasteur 1173P2.
[39] abbreviates: source organism: Vibrio antiquarius.
Where [40] appears, read: source organism: Human herpesvirus 4 strain B95-8.

In general, Kd refers to the concentration at which binding is half-saturated. A high value points to a looser complex. For KVSVGSYFC, the Kd in [1] (setting [34]) is no less than 20 µM; in [2] (setting [34]) it was no less than 20 µM; in experiment [3] (setting [34]) it was no less than 20 µM; in experiment [4] (setting [34]) it was no less than 20 µM; in experiment [5] (setting [34]) it was 9 µM; in [6] (setting [34]) it was no less than 20 µM. Moreover, the Kd in experiment [7] (setting [34]), in [8] (setting [34]), in experiment [9] (setting [34]), in experiment [10] (setting [34]), in experiment [11] (setting [34]) and in [12] (setting [34]) was no less than 20 µM throughout. For the same sequence, the Kd in experiment [13] (setting [34]), in experiment [14] (setting [34]), in [15] (setting [34]), in experiment [16], in [17] (setting [34]) and in experiment [18] (setting [34]) was no less than 20 µM each time. In addition, the Kd in experiment [19] (setting [34]), in experiment [20] (setting [34]) and in experiment [21] (setting [34]) was no less than 20 µM throughout.
For EVFFGLSRY, the Kd in [22] is no less than 10 µM; in experiment [23], 0.0269 µM; in experiment [24] (setting [35]), no more than 0.0001 µM; in [25] (setting [35]), no less than 5 µM; in [26] (setting [35]), no less than 5 µM; in [27] (setting [35]), no less than 5 µM.
For CERYGFPAS, the Kd in experiment [1] (setting [36]), in experiment [2] (setting [36]), in [3] (setting [36]), in experiment [4] (setting [36]), in experiment [5] (setting [36]) and in experiment [6] (setting [36]) was no less than 20 µM in each case. Besides, the dissociation constant Kd in experiment [7] (setting [36]) was 0.0433 µM; in [8] (setting [36]) it was no less than 20 µM; in [9] (setting [36]), no less than 20 µM; in experiment [10] (setting [36]) it was no less than 20 µM; in experiment [11] (setting [36]), no less than 20 µM; in [12] (setting [36]), no less than 20 µM. Also, the equilibrium dissociation constant (Kd) in experiment [13] (setting [36]), in experiment [14] (setting [36]), in experiment [15] (setting [36]), in experiment [17] (setting [36]), in experiment [18] (setting [36]) and in experiment [20] (setting [36]) was no less than 20 µM each time.
In the case of MTDVDLNYY, the Kd in [28] was no less than 20 µM; in [29] it was no more than 0.001 µM; in experiment [24] (setting [37]), 0.002 µM; in experiment [25] (setting [37]), no less than 5 µM; in experiment [26] (setting [37]), no less than 5 µM; in experiment [27] (setting [37]) it was no less than 5 µM. The Kd in experiment [30] was no less than 5 µM.
For DEGFHAATV, the Kd in [1] (setting [38]), in [2] (setting [38]), in experiment [3] (setting [38]), in experiment [4] (setting [38]), in [5] (setting [38]) and in experiment [6] (setting [38]) was no less than 20 µM in each case. Moreover, the dissociation constant Kd in [7] (setting [38]) is 0.0788 µM; in [8] (setting [38]), no less than 20 µM; in [9] (setting [38]), no less than 20 µM; in experiment [10] (setting [38]), no less than 20 µM; in experiment [11] (setting [38]), no less than 20 µM; in experiment [12] (setting [38]), no less than 20 µM. Further, the dissociation constant (Kd) in experiment [14] (setting [38]), in experiment [17] (setting [38]), in experiment [19] (setting [38]) and in experiment [20] (setting [38]) was no less than 20 µM throughout.
For the sequence FAMTVPLLI, the Kd in experiment [31] is 0.026 µM; in [32], no more than 0.001 µM; in [6] (setting [39]), 0.0027 µM; in experiment [33] (setting [39]), 0.0014 µM; in experiment [14] (setting [39]) it was 0.009 µM; in [15] (setting [39]), 0.126 µM. The Kd in experiment [17] (setting [39]) was no less than 20 µM.
Regarding VSFIEFVGW, the Kd in [1] (setting [40]) was 0.0249 µM; in [33] (setting [40]), 0.0011 µM; in experiment [21] (setting [40]), 0.0629 µM.
